{
  "source": "patent JP2017086068A",
  "about": "(dated 2017)",
  "target": "HA2融合ペプチドFGAIAG (Influenza A virus (A/VN/1194/04))",
  "assay": "Pepscan peptide mapping, linear and cyclised peptides of HA A/VN/1194/04",
  "data": [
    {"binder": "FI6変異体2 (antibody, V domains shown) VH: QVQLVQSGGGVVQPGRSLRLSCVASGFTFSTYAMHWVRQAPGRGLEWVAVISYDGNYKYYADSVKGRFSISRDNSNNTLHLEMNTLRTEDTALYYCAKDSQLRSLLYFEWLSQGYFDPWGQGTLVTVTS VL: DIQMTQSPDSLAVSLGARATINCKSSQSVTFNYKNYLAWYQQKPGQPPKVLIYWASARESGVPDRFSGSGSGTDFTLTISSLQAEDVAVYYCQQHYRTPPTFGQGTKVEIK", "values": [
      {"measurement": "binding result", "value": "binds"}
    ]}
  ]
}
